Measured values taken from publication PMC11218721, “Receptor-Targeted Peptide Conjugates Based on Diphosphines Enable Preparation of ^99mTc and ^188Re Theranostic Agents for Prostate Cancer” (Journal of Nuclear Medicine, 2024).
Like-named read-outs stand apart in the source and are kept apart here.

How the values were obtained:
[1] = Ex vivo biodistribution in SCID/beige mice bearing DU145-PSMA+ xenograft tumors; details: male, SCID/beige, mouse, in vivo, iv, total radioactivity
Description: (§1) All animal experiments were ethically reviewed by an Animal Welfare and Ethical Review Board at either King’s College London or Barts Cancer Institute and were performed in accordance with the Animals (Scientific Procedures) Act 1986 U.K. Home Office regulations governing animal experimentation. Subcutaneous prostate cancer DU145-PSMA+ or DU145 xenografts were produced in SCID/beige mice (male, 7–12 wk old). Subcutaneous LNCaP prostate cancer xenografts were produced in athymic nude mice (Crl:NU(NCr)-Foxn1^nu, male, 6–7 wk old). SPECT/CT and biodistribution studies using ^99mTc and ^188Re radiotracers were performed once a tumor had reached an appropriate size (supplemental materials).
(§2) The biodistributions of [^99mTc]Tc-DP1-PSMAt and [^99mTc]Tc-DP2-PSMAt were assessed in male SCID/beige mice bearing DU145-PSMA+ xenograft tumors (Fig. 3). Each mouse was administered either [^99mTc]Tc-DP1-PSMAt or [^99mTc]Tc-DP2-PSMAt and euthanized at 2 h after injection (n = 5), followed by organ harvesting for ex vivo radioactivity counting.
(§3) FIGURE 3. (A) Biodistribution (2 h after injection) of SCID/beige mice bearing DU145-PSMA+ prostate cancer tumors, administered either ^99mTc or ^188Re radiotracers intravenously. To assess specificity of radiotracer uptake, additional groups of mice were also coadministered radiotracer and PMPA (Supplemental Tables 3 and 4). (B) Whole-body SPECT/CT maximum-intensity projections of SCID/beige mice bearing either DU145-PSMA+ tumors or DU145 tumors, administered either [^99mTc]Tc-DP1-PSMAt or [^99mTc]Tc-DP2-PSMAt, 2 h after injection. To inhibit uptake in DU145-PSMA+ tumors, animals were also coadministered PMPA.
(§4) To assess the specificity of each radiotracer, separate groups of animals, also bearing DU145-PSMA+ tumors, were coadministered either [^99mTc]Tc-DP1-PSMAt and PMPA or [^99mTc]Tc-DP2-PSMAt and PMPA to inhibit PSMA-mediated uptake of radiotracer (n = 5). […] For [^99mTc]Tc-DP1-PSMAt, coadministration decreased uptake to 0.91 ± 0.29 %ID/g in tumors (compared with administration of [^99mTc]Tc-DP1-PSMAt only: mean difference of 17.12 %ID/g, P = 4 × 10^−4). For [^99mTc]Tc-DP2-PSMAt, coadministration decreased uptake to 0.76 ± 0.45 %ID/g in tumors (compared with administration of [^99mTc]Tc-DP2-PSMAt only: mean difference of 28.62 %ID/g, P = 5 × 10^−4).

in vivo = test: in vivo; design: species or system mice; details: male, SCID/beige, mouse, total radioactivity
Description: as §1
Additionally, groups of mice bearing non–PSMA-expressing parental DU145 tumors were also administered these ^99mTc radiotracers. For these groups, tumor uptake of [^99mTc]Tc-DP1-PSMAt decreased to 0.24 ± 0.07 %ID/g, and tumor uptake of [^99mTc]Tc-DP2-PSMAt decreased to 0.18 ± 0.07 %ID/g (Supplemental Fig. 3).

[2] = Ex vivo biodistribution in athymic nude mice bearing LNCaP xenografts; details: male, athymic nude (Crl:NU(NCr)-Foxn1^nu), mouse, total radioactivity
Description: as §1
With a view to developing a molecular [^188Re]Re-labeled agent for PSMA PRRT, we further characterized the biodistribution profiles of [^188Re]Re-DP1-PSMAt and [^188Re]Re-DP2-PSMAt in male athymic nude mice bearing LNCaP xenografts (Fig. 4), which recapitulate clinical metastatic prostate cancer more closely than DU145-PSMA+ xenografts. […] In mice administered [^188Re]Re-DP1-PSMAt, LNCaP tumor uptake measured 7.0 ± 2.3 %ID/g at 2 h after injection and 2.9 ± 0.8 %ID/g at 24 h after injection. For [^188Re]Re-DP2-PSMAt, LNCaP tumor uptake measured 9.8 ± 2.8 %ID/g at 2 h after injection and 7.6 ± 4.4 %ID/g at 24 h after injection.
FIGURE 4. (A–C) Biodistribution of ^188Re in athymic nude mice bearing LNCaP prostate cancer tumors, administered either [^188Re]Re-DP1-PSMAt or [^188Re]Re-DP2-PSMAt at 2 h after injection (A), at 24 h after injection (B), and at 2 h after injection (C) with coadministration of Gelofusine. (D) Additionally, biodistributions of [^99mTc]Tc-DP1-PSMAt and [^99mTc]Tc-DP2-PSMAt at 2 h after injection were measured (Supplemental Tables 5–8). GI = gastrointestinal tract.

PC3 cells = test: Radiotracer uptake in PC3 cells (non-PSMA-expressing); format: cell-based; details: 100 kBq, 1 h, 37°C; cells do not express PSMA
Description: (§5) Solutions containing radiotracer (100 kBq in 8–12 μL of phosphate-buffered saline, >95% radiochemical purity) were added to DU145-PSMA+ or LNCaP prostate cancer cells ([22]), and the cells were incubated at 37°C for 1 h. Nonspecific uptake was determined using non–PSMA-expressing cells (DU145, PC3) or by blocking PSMA-expressing cells (DU145-PSMA+, LNCaP) with 2-phosphonomethyl pentanedioic acid (PMPA). After incubation, the cells were washed and samples collected for radioactivity counting. Uptake and localization of ^99mTc radiotracers were measured over time (15, 30, 60, and 120 min) in DU145-PSMA+ or LNCaP cells (supplemental materials).
(§6) To assess the specificity of the new radiotracers for PSMA, [^99mTc]Tc-DP1-PSMAt and [^99mTc]Tc-DP2-PSMAt (100 kBq) were each incubated with DU145-PSMA+ prostate cancer cells (DU145 cells transfected to express PSMA receptor) ([22]). After 1 h of incubation, uptake of each radiotracer was quantified. […] In LNCaP cells, uptake of [^99mTc]Tc-DP1-PSMAt and [^99mTc]Tc-DP2-PSMAt measured 3.7 ± 1.2 %AR and 3.0 ± 0.8 %AR, respectively, whereas uptake of both radiotracers in PC3 cells measured less than 0.3 %AR.
(§7) FIGURE 2. (A) Uptake of radiotracers in PSMA-positive and PSMA-negative prostate cancer cells. (B) Time course uptake and localization of ^99mTc radiotracers in DU145-PSMA cells and LNCaP cells. Data are presented as mean ± SD; n = 3–4 biologic repeats performed in triplicate.

[3] = test system: DU145-PSMA+ xenograft tumors; test: Ex vivo biodistribution in SCID/beige mice bearing DU145-PSMA+ xenograft tumors; details: for effect of PMPA coadministration on spleen uptake (in words) / effect of PMPA coadministration on tumor uptake (in words): SCID/beige mice bearing DU145-PSMA+ tumors, 2 h after injection; for radioactivity concentration in DU145-PSMA+ tumors: male, SCID/beige, mouse, in vivo, iv, 2 h
Description: as §1, §2, §3, §4

[4] = test system: parental DU145 cells that do not express PSMA; test: Radiotracer uptake in parental DU145 cells (non-PSMA-expressing); format: cell-based; details: 100 kBq, 1 h, 37°C
Description: as §5, §6, §7

[5] = test system: LNCaP prostate cancer cells, which natively express PSMA; test: Radiotracer uptake in LNCaP prostate cancer cells; format: cell-based; details: 37°C; for uptake in LNCaP cells: 100 kBq radiotracer, 1 h incubation, percentage added radioactivity, mean ± SD, n = 3–4 biologic repeats in triplicate; for uptake in LNCaP cells with PMPA block: blocked with PMPA, 1 h
Description: as §5, §6, §7

[6] = test system: DU145-PSMA+ prostate cancer cells (DU145 cells transfected to express PSMA receptor); test: Radiotracer uptake in DU145-PSMA+ prostate cancer cells; format: cell-based; details: 37°C; for uptake in DU145-PSMA+ cells: 100 kBq radiotracer, 1 h incubation, percentage added radioactivity, mean ± SD, n = 3–4 biologic repeats in triplicate; for uptake in DU145-PSMA+ cells with PMPA block: coincubated with PSMA inhibitor PMPA, 1 h
Description: as §5, §6, §7

[7] = SCID/beige mice bearing DU145-PSMA+ tumors, 2 h after injection, read-out: radioactivity concentration in kidneys
[8] = SCID/beige mice, 2 h after injection, PMPA coadministered, n = 5, read-out: DU145-PSMA+ tumor uptake with coadministration of PMPA
[9] = SCID/beige mice, 2 h after injection, PMPA coadministered, read-out: radioactivity concentration in spleen with PMPA
[10] = radioactivity concentration in DU145-PSMA+ tumors
[11] = radioactivity concentration in spleen
[12] = athymic nude mice bearing LNCaP tumors, 2 h after injection, Gelofusine coadministered, read-out: kidney retention with coadministration of Gelofusine
[13] = athymic nude mice bearing LNCaP tumors, 2 h after injection, read-out: concentration in kidneys at 2 h
[14] = athymic nude mice bearing LNCaP tumors, 24 h after injection, read-out: concentration in kidneys at 24 h

SMILES	tissue uptake at 2 h [1, 7]	tissue uptake at 2 h [1, 8]	tissue uptake at 2 h [1, 9]	tissue uptake at 2 h [1, 10]	tissue uptake at 2 h [1, 11]	tissue uptake at 2 h (in vivo)	tissue uptake at 2 h [2]	tissue uptake at 24 h [2]	tissue uptake at 2 h [2, 12]	tissue uptake at 2 h [2, 13]	tissue uptake at 24 h [2, 14]	uptake in PC3 cells (in words) (PC3 cells)	effect of PMPA coadministration on spleen uptake (in words) [3]	effect of PMPA coadministration on tumor uptake (in words) [3]	radioactivity concentration in DU145-PSMA+ tumors [3]	uptake in parental DU145 cells [4]	uptake in LNCaP cells [5]	uptake in LNCaP cells with PMPA block [5]	uptake in DU145-PSMA+ cells [6]	uptake in DU145-PSMA+ cells with PMPA block [6]	other results
O=C(O)CC[C@H](NC(=O)N[C@@H](CCCCNC(=O)CCOCCOCCOCCOCCNC(=O)/C(=C(\C(=O)O)P(c1ccccc1)c1ccccc1)P(c1ccccc1)c1ccccc1)C(=O)O)C(=O)O [[^99mTc]Tc-DP1-PSMAt, metal not drawn]	116 ± 27.3 %ID/g	0.91 ± 0.29 %ID/g	0.2 ± 0.06 %ID/g	18 ± 3.5 %ID/g	12 ± 5.3 %ID/g	0.24 ± 0.07 %ID/g	–	–	–	–	–	–	–	–	–	–	–	–	–	–	tissue uptake at 2 h ([1]; SCID/beige mice, 2 h after injection, PMPA coadministered, read-out: radioactivity concentration in kidneys with PMPA): 38 ± 2.9 %ID/g
O=C(O)CC[C@H](NC(=O)N[C@@H](CCCCNC(=O)CCOCCOCCOCCOCCNC(=O)/C(=C(\C(=O)O)P(c1ccccc1)c1ccccc1)P(c1ccccc1)c1ccccc1)C(=O)O)C(=O)O [[^188Re]Re-DP1-PSMAt, metal not drawn]	–	–	–	–	–	–	7 ± 2.3 %ID/g	2.9 ± 0.8 %ID/g	109 ± 13.3 %ID/g	137 ± 34.6 %ID/g	29.4 ± 4.9 %ID/g	–	–	–	–	–	–	–	–	–	–
O=C(O)CC[C@H](NC(=O)N[C@@H](CCCCNC(=O)CCOCCOCCOCCOCCNC(=O)/C(=C(\C(=O)O)P(c1ccccc1)c1ccccc1)P(c1ccccc1)c1ccccc1)C(=O)O)C(=O)O [[^188Re]Re-DP1-PSMAt] [metal not drawn]	–	–	–	–	–	–	–	–	–	–	–	negligible uptake	significantly inhibited uptake	significantly inhibited uptake	27.7 ± 6.4 %ID/g	negligible uptake	2.8 ± 1.6 %AR	could be blocked with PMPA	13.5 ± 2.7 %AR	could be blocked with PMPA	–
Cc1ccc(P(/C(C(=O)O)=C(/C(=O)NCCOCCOCCOCCOCCC(=O)NCCCC[C@H](NC(=O)N[C@@H](CCC(=O)O)C(=O)O)C(=O)O)P(c2ccc(C)cc2)c2ccc(C)cc2)c2ccc(C)cc2)cc1 [[^99mTc]Tc-DP2-PSMAt, metal not drawn]	183 ± 23.8 %ID/g	0.76 ± 0.45 %ID/g	0.3 ± 0.18 %ID/g	29.4 ± 6.3 %ID/g	7.7 ± 3.4 %ID/g	0.18 ± 0.07 %ID/g	–	–	–	–	–	–	–	–	–	–	–	–	–	–	–
Cc1ccc(P(/C(C(=O)O)=C(/C(=O)NCCOCCOCCOCCOCCC(=O)NCCCC[C@H](NC(=O)N[C@@H](CCC(=O)O)C(=O)O)C(=O)O)P(c2ccc(C)cc2)c2ccc(C)cc2)c2ccc(C)cc2)cc1 [[^188Re]Re-DP2-PSMAt] [metal not drawn]	–	–	–	–	–	–	–	–	–	–	–	negligible uptake	significantly inhibited uptake	significantly inhibited uptake	19.2 ± 8.6 %ID/g	negligible uptake	2.6 ± 1.6 %AR	could be blocked with PMPA	8.3 ±0.7 %AR	could be blocked with PMPA	–
Cc1ccc(P(/C(C(=O)O)=C(/C(=O)NCCOCCOCCOCCOCCC(=O)NCCCC[C@H](NC(=O)N[C@@H](CCC(=O)O)C(=O)O)C(=O)O)P(c2ccc(C)cc2)c2ccc(C)cc2)c2ccc(C)cc2)cc1 [[^188Re]Re-DP2-PSMAt, metal not drawn]	–	–	–	–	–	–	9.8 ± 2.8 %ID/g	7.6 ± 4.4 %ID/g	128 ± 17.7 %ID/g	163 ± 31.8 %ID/g	37 ± 12.2 %ID/g	–	–	–	–	–	–	–	–	–	–
